Assays:
[1] = molecular target: human CD36 (cluster of differentiation 36), ectodomain, Fc-fusion (human); test: BLI; Octet RED96; Fc-tagged receptor immobilised on protein G (ProG) biosensor, twofold serial dilution of His-tagged parasite ligand in HBS; KD from the response in equilibrium against concentration
[2] = molecular target: T1, Plasmodium vivax Duffy binding protein region II (PvDBP-RII), residues 194 to 521, His-tagged (Plasmodium vivax, UniProt P22290 194-521, biotin (biotinylated with co-transfected secreted E. coli BirA and D-biotin, for the ELISA bait)); test: as above; details: both partners purified
T1 construct: source: HEK293E, transfected, culture supernatant, purified (Ni-NTA agarose); not shown: His, C-terminal, kept

Molecule “Plasmodium vivax merozoite-specific thrombospondin-related anonymous protein (PvMTRAP), full-length ectodomain, His-tagged (domain or fragment)” has a Kd [1] of 37 nM.

B1: Duffy antigen receptor for chemokines (DARC, CD234), residues 1 to 63, Fc-fusion (Fc fusion, human, UniProt Q16570 1-63, looked up)
chain: MGNCLHRAELSPSTENSSQLDFEDVWNSSYGVNDSFPDGDYGANLEAAAPCHSCNLLDDSALP
notes: Duffy antigen receptor for chemokines (CD234), human, residues 1 to 63; also called human DARC; source: HEK293E, transfected, culture supernatant, purified (HiTrap Protein G HP); not shown: Fc, C-terminal, kept
In the case of B1, the Kd [2] is reported as 7.7 nM.
